The supplement of paper PMC9112550, “Optimization of the antimicrobial peptide Bac7 by deep mutational scanning” (BMC Biology, 2022)

Tested on: Escherichia coli TOP10
Experiment: shrunken log2 fold change of peptide-encoding DNA abundance (4.5 h post-induction vs induction); higher = less antimicrobial activity (less host growth inhibition)
Conditions: time post-induction: 4.5 h; library: site-saturation at positions 5, 18, 19, 20
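Note: peptides expressed intracellularly from a pBAD plasmid library in pooled LB shake-flask culture, induced with 0.3% L-arabinose, DNA abundance read by NGS, three biological replicates, DESeq2 with apeglm shrinkage.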

RRIRMRPPRLPRPRPRPVPAPRP
shrunken log2 fold change: 1.11

RRIRGRPPRLPRPRPRPRQRPRP
shrunken log2 fold change: 0.815

RRIRKRPPRLPRPRPRPDAIPRP
shrunken log2 fold change: 0.889

RRIRWRPPRLPRPRPRPMNTPRP
shrunken log2 fold change: -0.28

RRIRHRPPRLPRPRPRPRWCPRP
shrunken log2 fold change: 0.0475

RRIRHRPPRLPRPRPRPDFFPRP
shrunken log2 fold change: -0.26

RRIRSRPPRLPRPRPRPTIKPRP
shrunken log2 fold change: -0.29

RRIRDRPPRLPRPRPRPDATPRP
shrunken log2 fold change: 0.0857

RRIRDRPPRLPRPRPRPFCMPRP
shrunken log2 fold change: 0.00343

RRIRVRPPRLPRPRPRPDRPPRP
shrunken log2 fold change: -0.109

RRIRHRPPRLPRPRPRPCCFPRP
shrunken log2 fold change: -0.245

RRIRQRPPRLPRPRPRPEKPPRP
shrunken log2 fold change: -0.129

RRIRVRPPRLPRPRPRPMQHPRP
shrunken log2 fold change: 0.0443

RRIRMRPPRLPRPRPRPQLIPRP
shrunken log2 fold change: -0.0368

RRIRCRPPRLPRPRPRPPVIPRP
shrunken log2 fold change: -0.0627

RRIRWRPPRLPRPRPRPRCKPRP
shrunken log2 fold change: 0.33

RRIRLRPPRLPRPRPRPGGWPRP
shrunken log2 fold change: 0.71

RRIRQRPPRLPRPRPRPPRPPRP
shrunken log2 fold change: 0.752

RRIRRRPPRLPRPRPRPMGIPRP
shrunken log2 fold change: 0.0313

RRIRWRPPRLPRPRPRPEFKPRP
shrunken log2 fold change: 0.0019

RRIRERPPRLPRPRPRPGQHPRP
shrunken log2 fold change: -0.242

RRIRFRPPRLPRPRPRPCEWPRP
shrunken log2 fold change: 0.134

RRIRYRPPRLPRPRPRPRFYPRP
shrunken log2 fold change: -0.45

RRIRMRPPRLPRPRPRPLFTPRP
shrunken log2 fold change: -0.171

RRIRPRPPRLPRPRPRPWWPPRP
shrunken log2 fold change: 0.165

RRIRYRPPRLPRPRPRPKSWPRP
shrunken log2 fold change: -0.00323

RRIRFRPPRLPRPRPRPGYQPRP
shrunken log2 fold change: -0.0555

RRIRARPPRLPRPRPRPSFPPRP
shrunken log2 fold change: -0.0947

RRIRARPPRLPRPRPRPDATPRP
shrunken log2 fold change: 1.6

RRIRDRPPRLPRPRPRPVYYPRP
shrunken log2 fold change: -0.707

RRIRHRPPRLPRPRPRPIHKPRP
shrunken log2 fold change: -1.25

RRIRTRPPRLPRPRPRPKCAPRP
shrunken log2 fold change: 0.909

RRIRYRPPRLPRPRPRPQNCPRP
shrunken log2 fold change: -0.0075

RRIRTRPPRLPRPRPRPYPGPRP
shrunken log2 fold change: -0.164

RRIRHRPPRLPRPRPRPSCHPRP
shrunken log2 fold change: -0.509

RRIRHRPPRLPRPRPRPAQQPRP
shrunken log2 fold change: -0.0312

RRIRLRPPRLPRPRPRPFMRPRP
shrunken log2 fold change: 0.495

RRIRGRPPRLPRPRPRPTLLPRP
shrunken log2 fold change: 0.884

RRIRGRPPRLPRPRPRPDCNPRP
shrunken log2 fold change: 0.679

RRIRDRPPRLPRPRPRPVEGPRP
shrunken log2 fold change: 0.211

RRIRWRPPRLPRPRPRPFWIPRP
shrunken log2 fold change: 0.0876

RRIRPRPPRLPRPRPRPVTWPRP
shrunken log2 fold change: -0.0661

RRIRPRPPRLPRPRPRPEDQPRP
shrunken log2 fold change: 0.106

RRIRERPPRLPRPRPRPPRPPRP
shrunken log2 fold change: 0.64

RRIRARPPRLPRPRPRPQHEPRP
shrunken log2 fold change: 0.0966

RRIRKRPPRLPRPRPRPLRYPRP
shrunken log2 fold change: 0.227

RRIRFRPPRLPRPRPRPRKIPRP
shrunken log2 fold change: 0.0429

RRIRMRPPRLPRPRPRPGIGPRP
shrunken log2 fold change: 0.638

RRIRERPPRLPRPRPRPVVTPRP
shrunken log2 fold change: -0.95

RRIRTRPPRLPRPRPRPWGMPRP
shrunken log2 fold change: -0.126

RRIRMRPPRLPRPRPRPYEHPRP
shrunken log2 fold change: -0.291

RRIRKRPPRLPRPRPRPYKSPRP
shrunken log2 fold change: -0.243

RRIRYRPPRLPRPRPRPPVEPRP
shrunken log2 fold change: -0.108

RRIRDRPPRLPRPRPRPTQCPRP
shrunken log2 fold change: -0.0857

RRIRIRPPRLPRPRPRPCCQPRP
shrunken log2 fold change: -0.0291

RRIRARPPRLPRPRPRPLKGPRP
shrunken log2 fold change: 0.052

RRIRMRPPRLPRPRPRPYASPRP
shrunken log2 fold change: -0.0515

RRIRVRPPRLPRPRPRPKKVPRP
shrunken log2 fold change: -0.11

RRIRWRPPRLPRPRPRPCYGPRP
shrunken log2 fold change: 0.22

RRIRQRPPRLPRPRPRPNKPPRP
shrunken log2 fold change: -0.195
